± gives the uncertainty stated by the source.

The nature of the series: amyloid nucleation score (Sup35N fusion, yeast selection) (log enrichment); library NNK3; higher = more nucleation; inactive = no reads after selection. In outline:
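Sup35N was fused to peptides of 20 random codons and expressed in psi-negative yeast, which were induced with 100 μM copper sulfate for 24 hours and then grown on medium lacking adenine and uracil for 7 days at 30°C. Plasmid inserts from input and output were sequenced on Illumina. The nucleation score is the DiMSum log enrichment of output over input reads, centred on the mode score of non-aggregating sequences. Sequences with under 100 input reads were left out, and random libraries had three technical output replicates.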

For the substance LAIYTVRSQFKVMCGVQSIR, the amyloid nucleation score stood at 0.85 ± 0.16. Regarding LYMVSYG, the amyloid nucleation score result was “inactive”.

Consider CCSSRMYLEGCPSLRLMEHI, for which the amyloid nucleation score entry is “inactive”.

YPLFMDYMLTCVHM: the amyloid nucleation score entry was “inactive”. As to VEMFNITAYTIKSLRVIGLV, the amyloid nucleation score result is “inactive”. The entry for LLTVSLPMDGST is “inactive”; for YLQFIDENS it is “inactive”. Take KDRHVSYFGLYKLGWRYTPS: the amyloid nucleation score entry is “inactive”. Take GFYRLVVQGLVVSRGLNWCV: the amyloid nucleation score entry was “inactive”. Turning to FDERSF, the amyloid nucleation score entry was “inactive”. For SIRLGNNSWPVATSVKWHSV, the amyloid nucleation score result was “inactive”.

Regarding IVSLSLVMSTDLC, the amyloid nucleation score was found to be 0.834 ± 0.24. The figure for NYYYMYGKCSI is 2.28 ± 0.082; for TSKLVCPNGVMHLRDDRVGC it is “inactive”; for ISSRGSMTRL it is “inactive”.

On to TMTRSLYSVVSFKRFNSCLV, for which the amyloid nucleation score result is “inactive”.

As to LLMSLL, the amyloid nucleation score came out at 0.09 ± 0.88. As for LLTWMIG, the amyloid nucleation score was 0.714 ± 0.29. With YRAECNNFLMPLCCTEFFQI the figure was 2.2 ± 0.087.

Consider RCTVSTSGSGGFCPVPRSGM, for which the amyloid nucleation score result is “inactive”. The entry for MCYVVNAHGVASQ is “inactive”; for EKQKSLFCVLMVGLFYVNV it is “inactive”.

On to LREMGLHYWGD, for which the amyloid nucleation score result is “inactive”.

Regarding QFKLHCYRGMVVNHSLMCDT, the amyloid nucleation score entry was “inactive”. The entry for LFDMLMHTSPC is “inactive”; for CYVLVMKIPSHFKGTFMWHI it is “inactive”; for YLLSL it is “inactive”. With NMFRFLMCSSTRHYVRIMTN the entry was “inactive”. Consider LTIRPFEVGRESESGFVLIS, for which the amyloid nucleation score result was “inactive”. On to FIALIYVIIPDIEGSVYVSN, for which the amyloid nucleation score result is “inactive”.

In the case of AKSMVWNGGVWYLFQEYARG, the amyloid nucleation score result is “inactive”.

LRMWERMCAVSL: the amyloid nucleation score result is “inactive”.

With ADKWSHGAHDRVVLVLRVCR, the amyloid nucleation score entry was “inactive”. Regarding EPYPM, the amyloid nucleation score result was “inactive”. The entry for FVLFAYWHARPNTISRGCDH is “inactive”; for KYNTCSEV it is “inactive”. With WGLWSVSVCWMRLFPGY the entry was “inactive”; with LYTNLTTVDLHCVKNA, “inactive”. With TTFATSCNMWYHRSILHS the entry was “inactive”; with ATNLWR, “inactive”; with FKDCED, -0.328 ± 0.6. For the substance LILYSLGNNTHEMIYLWSNR, the amyloid nucleation score result was “inactive”. The entry for ILRFFVCLSHKNVDFICSAR is “inactive”; for YVYDCYAAQHVY it is -0.213 ± 0.77; for KPMVYFQLRRLSKKVIYCAM it is “inactive”. Substance CKIGYPTYNVGVIVSLVVRM registered an amyloid nucleation score of 1.61 ± 0.066. With VNYRSNIFNHYCSFSRN the figure was 0.934 ± 0.11; with TYGNLFNNCDKIYRRQNRSL, “inactive”. With YFEYRPKMHHYSLCYMGEFS the entry was “inactive”; with VHSFLKYGGNSAIGLLPEDS, “inactive”; with CNLALFTRGWGEYMIVSCCK, “inactive”. With GERTVLVKGLMRCIWVPVIW the entry was “inactive”. The substance NFITRWCGFSGSA registered an amyloid nucleation score of 0.608 ± 0.2.

In turn, RISLCVHFILFCFPSSRQSL registered an amyloid nucleation score of 0.815 ± 0.12. With PTRNYCLLVKDY the entry was “inactive”; with NFIIWWVLDISVERIRINEV, “inactive”; with SDGHFLCV, “inactive”. Regarding GVLSLLFSYIIVYEWKEMGN, the amyloid nucleation score result is “inactive”.

Turning to DLGLNYFESSRDPDGSLLYL, the amyloid nucleation score entry was “inactive”. With TRSCDRYRALYSLLFTTGSM the entry was “inactive”; with WSLSYHRKMIFGDTCVTYIG, “inactive”. The figure for HTILENFSSLVVMRDGRRNG is -0.275 ± 0.52; for LLYARVIRRMCPKVVLFLSD it is “inactive”; for TLLHDSDVGMQLSGSQRFFS it is “inactive”. With SKVPYPNLVTCVVLCVGFYV the entry was “inactive”; with FGVVWGSKLFCRFGSVTIYP, “inactive”. Substance FMPANAFWTKFCSARNRLYI came in with an amyloid nucleation score of -0.135 ± 0.57. With TVLVTMFKIEEQLTF, the amyloid nucleation score result is “inactive”. With GRARNHHRKNRGIGL the entry was “inactive”. The entry for TAPFVYLLWRGKCSKAHSRY is “inactive”; for TEQNVSGCEGEGSYGYTRYA it is “inactive”; for FPICWLRVVDLALFKWMYNF it is “inactive”. With YLVLKDTRYAYTLLRSMLSA the entry was “inactive”; with LLRRLYLTLACPFYLMHTKC, “inactive”. LLRSYFVVAC: the amyloid nucleation score result is “inactive”.

WCFYFEQDMFHAPY displayed an amyloid nucleation score of -0.106 ± 0.82.

HEQDVAPKCWMYVELNQLGW registered an amyloid nucleation score of 0.688 ± 0.2.

In the case of GVYSVTCMFYKWEVGWSSSD, the amyloid nucleation score result was “inactive”. Take EFALTIWCLGAALCIIKSLS: the amyloid nucleation score entry was “inactive”.

Regarding VNRKEIRHVRLLCPSRGSVA, the amyloid nucleation score was -0.091 ± 0.43.

On to GDLKLGLVIYESCGSMVMSW, for which the amyloid nucleation score result is “inactive”. In the case of DSYIVYDKQDPS, the amyloid nucleation score result was “inactive”. With TRWHDGKRVSWKSTPNMLSV the entry was “inactive”; with DSICYHAFYMEEGGS, “inactive”; with GFYLVVKTINGFPNNLKWMA, 0.296 ± 0.21. The figure for SLWNDFMCQSCLGVIVNGAA is 0.253 ± 0.6.

MLLIVTSCYISAPNAVSPGW: the amyloid nucleation score is -0.563 ± 0.84. Turning to LREHWEELVLGFWFPKVCCF, the amyloid nucleation score result is “inactive”. With GLTLRRWINAFHRHVGNKGQ the figure was 0.592 ± 0.24. Take LQLLRIGHWMLPCCWRILLV: the amyloid nucleation score result was “inactive”. The entry for FSSIMSFVVYSRKLLEVTSP is “inactive”.

In turn, APVKLAGLHTSVRARGIGYW yielded an amyloid nucleation score of -0.192 ± 1.3. With FMRGTVLKTRNYRFRQAHEE the entry was “inactive”; with EYLPEQPVCIVMSYTPKFPC, “inactive”. With VRTRMEPRG the entry was “inactive”; with HVMGANREPF, “inactive”; with GFGGFGRVDNSLCIKAPCCV, 0.127 ± 0.29. As to NVFLRNLA, the amyloid nucleation score result was “inactive”. With SGSGFQLLDGLTTRFSVVTF, the amyloid nucleation score result was “inactive”.

In the case of HFKSESRFTN, the amyloid nucleation score result was “inactive”. The entry for NGVMGRGLYTKSQRSYCDNN is “inactive”; for PWGPW it is “inactive”.

SYGGYQFLYVNSDKLRV: the amyloid nucleation score entry is “inactive”. With SCRLSISFTGAGNVRCAKMM the entry was “inactive”; with ILSDMTGDHNSINFDMYSGI, “inactive”. As for SGSNILMEWNCYRARLCRGS, the amyloid nucleation score entry was “inactive”. The entry for ICEVNCGLVIWWVRRFEGAS is “inactive”; for EHCSGNFRLNLSCDEVHIWM it is 2.99 ± 0.063; for VRAVLIAYGLK it is “inactive”. With QIFLCTGFCR the figure was 2.69 ± 0.062; with VGGPNCIQAFS, “inactive”.

Regarding FDMVFVLENRLYRSMANLSF, the amyloid nucleation score result is “inactive”. Take FERDMVQ: the amyloid nucleation score entry was “inactive”. The entry for SNLLCEALETRLYPRLKHVR is “inactive”; for SPQLNCEANWKVFCWAGMDP it is “inactive”. For the substance FRVAAMAISGTISCQYFQGL, the amyloid nucleation score worked out at 0.739 ± 0.17. On to TYSVGHR, for which the amyloid nucleation score result is “inactive”. As for SMIYRLRSWVQYCDSQC, the amyloid nucleation score was 0.344 ± 0.21. The entry for DCHLPKIKYFAITYFCFFRR is “inactive”. With AFYFRT the entry was “inactive”; with MVIGNVCFIIYGSFNEE, 2.33 ± 0.089. In the case of EEVSVA, the amyloid nucleation score result was “inactive”.

SRKGDMPLDIDSWTCTVAFF had an amyloid nucleation score of 1.13 ± 0.12. As for SITFGFESFDVVLGNM, the amyloid nucleation score entry was “inactive”. The entry for RFFVNL is “inactive”; for IRRQYIYHSNEYRMMHYSES it is 0.179 ± 0.85. The entry for SCGLGLLAVVEKCVVTHRFF is “inactive”; for ILGAILLSMFDSLYLGGEWR it is “inactive”. The entry for PMGNRAWFPFLYEDQKPRIS is “inactive”; for KYANILSFTPFNQQSI it is “inactive”; for TFRLAEQQSEFSDLK it is -0.335 ± 0.71.

On to VHTCGRKVWFEA, for which the amyloid nucleation score result is “inactive”.
